Changes are numbered by the printed parent chain. In names and notes the source's numbering stands.
Assays:
[1] = target: the molecule itself; assay: SEC; Superdex 200 10/300 GL, 20 mM Tris pH 7.5, 150 mM NaCl; NFIL3 bZIP domain WT 2 mg/ml apo and NFIL3 mutants, against protein standard
[2] = target: the molecule itself; assay: SEC; gel filtration chromatography of the recombinant C/EBPζ bZIP domain; conditions not told for this protein
C/EBPα bZIP = C/EBPα bZIP (human, UniProt P49715 281-340); assay: ITC; ITC: 20 mM Tris pH 7.5, 150 mM NaCl, 25 °C; EMSA: same buffer, 4 °C, 6% native gel in 0.5x TBE; details: protein: recombinant; tags: His6-SUMO removed by TEV; chain copies: 2; blunt
Chain of C/EBPα bZIP (P49715 281-340): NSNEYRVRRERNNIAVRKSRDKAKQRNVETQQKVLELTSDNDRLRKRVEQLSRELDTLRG

C/EBPζ bZIP = C/EBPζ bZIP (human, UniProt P35638 88-162); assay: as above; details: protein: recombinant; tags: His6-SUMO removed by TEV; chain copies: 2; blunt
NFIL3 bZIP (long) = target: T1, NFIL3 bZIP (long) (human, UniProt Q16649 65-161); assay: as above; details: protein: recombinant, tags: His6-SUMO removed by TEV, chain copies: 2, blunt
T1 sequence: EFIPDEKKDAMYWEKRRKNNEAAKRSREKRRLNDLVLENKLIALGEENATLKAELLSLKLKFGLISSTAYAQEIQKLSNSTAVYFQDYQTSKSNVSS

NFIL3 bZIP (short) = target: T2, NFIL3 bZIP (short) (human, UniProt Q16649 65-136); assay: as above; details: protein: recombinant; tags: His6-SUMO removed by TEV; chain copies: 2; blunt
T2 sequence: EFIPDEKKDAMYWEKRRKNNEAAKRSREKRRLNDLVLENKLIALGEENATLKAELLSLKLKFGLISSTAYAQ

C/EBPβ bZIP = C/EBPβ bZIP (human, UniProt P17676 259-336); assay: as above; details: protein: recombinant; tags: His6-SUMO removed by TEV; chain copies: 2; blunt
Chain of C/EBPβ bZIP (P17676 259-336): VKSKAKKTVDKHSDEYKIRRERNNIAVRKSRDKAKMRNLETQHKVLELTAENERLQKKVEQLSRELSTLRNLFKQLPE

B1: NFIL3 bZIP domain (aa 65-161) (domain or fragment, human, UniProt Q16649 65-161, looked up)
chain: T1 sequence
notes: human NFIL3, bZIP domain, residues 65-161 (canonical bZIP helix aa 73-126 and an extra short helix aa 131-146); The methods of the size-exclusion run say only 'NFIL3 bZIP domain WT'; also called E4BP4; nuclear factor interleukin-3 regulated protein; source: E. coli BL21 (DE3), purified (Ni-NTA, TEV, anion exchange, gel filtration); not shown: His6, N-terminal, cleaved; SUMO, N-terminal, cleaved
- stoichiometry N [1]: 2

B2: NFIL3 bZIP domain N112D mutant (domain or fragment, human, UniProt Q16649 65-161, looked up)
chain: T1 sequence with N48D
notes: human NFIL3, bZIP domain, residues 65-161 with N112D; also called NFIL3 (N112D); source: E. coli BL21 (DE3), purified as the wild-type protein; not shown: His6, N-terminal, cleaved; SUMO, N-terminal, cleaved
- stoichiometry N [1]: 2

B3: C/EBPζ bZIP domain (aa 88-162) (domain or fragment, human, UniProt P35638 88-162, looked up)
chain: SSLAQEEEEEDQGRTRKRKQSGHSPARAGKQRMKEKEQENERKVAQLAEENERLKQEIERLTREVEATRRALIDR
notes: human C/EBPζ, bZIP domain, residues 88-162; source: E. coli BL21 (DE3), purified (Ni-NTA, TEV, anion exchange, gel filtration); not shown: His6, N-terminal, cleaved; SUMO, N-terminal, cleaved
- stoichiometry N [2]: 2

B4: TTACGTAA (dsDNA)
DNA 1: CATTACGTAATG
DNA 2: CATTACGTAATG
- Kd (C/EBPα bZIP): 350 ± 30 nM
- binding result (C/EBPζ bZIP): no binding
- Kd (NFIL3 bZIP (long)): 42 ± 7 nM
- Kd (NFIL3 bZIP (short)): 52 ± 17 nM
- Kd (C/EBPβ bZIP): 18 ± 3 nM

B5: cTACGTAA (dsDNA)
DNA 1: CACTACGTAATG
DNA 2: CATTACGTAGTG
- Kd (NFIL3 bZIP (long)): 2430 ± 150 nM

B6: TTAaGTAA (dsDNA)
DNA 1: CATTAAGTAATG
DNA 2: CATTACTTAATG
- Kd (NFIL3 bZIP (long)): 120 ± 10 nM

B7: TTGCGCAA (dsDNA)
DNA 1: CATTGCGCAATG
DNA 2: CATTGCGCAATG
- Kd (C/EBPα bZIP): 480 ± 70 nM
- binding result (C/EBPζ bZIP): no binding
- Kd (NFIL3 bZIP (long)): 810 ± 70 nM
- Kd (C/EBPβ bZIP): 69 ± 9 nM

B8: TcACGTAA (dsDNA)
DNA 1: CATCACGTAATG
DNA 2: CATTACGTGATG
- Kd (NFIL3 bZIP (long)): 1660 ± 110 nM

B9: TTgCGTAA (dsDNA)
DNA 1: CATTGCGTAATG
DNA 2: CATTACGCAATG
- Kd (NFIL3 bZIP (long)): 180 ± 20 nM

B10: TGATGTAA (dsDNA)
DNA 1: GATGATGTAATC
DNA 2: GATTACATCATC
- binding result (C/EBPζ bZIP): no binding

B11: TTAtGTAA (dsDNA)
DNA 1: CATTATGTAATG
DNA 2: CATTACATAATG
- Kd (NFIL3 bZIP (long)): 520 ± 30 nM

B12: ccgCGTAA (dsDNA)
DNA 1: CACCGCGTAATG
DNA 2: CATTACGCGGTG
- Kd (NFIL3 bZIP (long)): 6890 ± 340 nM

B13: mutated flanking DNA (dsDNA)
DNA 1: CGTTACGTAATG
DNA 2: CATTACGTAACG
- Kd (NFIL3 bZIP (long)): 67 ± 14 nM

B14: TTAmCGTAA (dsDNA)
DNA 1: CATTACGTAATG
DNA 2: CATTACGTAATG
modifications: 5-methyl-C at position 6 of the printed strand; second strand not printed (palindrome, methylation of it not stated)
- Kd (NFIL3 bZIP (long)): 590 ± 89 nM

B15: T/G mismatch TTAt (dsDNA)
DNA 1: CATTATGTAATG
DNA 2: CATTACGTAATG
modifications: T/G mismatch at position 6 of strand 1
- Kd (NFIL3 bZIP (long); one T/G mismatch): 290 ± 30 nM

Reference: article PMC10941009, “Structural basis for specific DNA sequence recognition by the transcription factor NFIL3” (The Journal of Biological Chemistry, 2024)
